The test concerns the target IL-1β mutant with pBpa at position 63 (Homo sapiens). Put plainly: cross-linking.

Turning to “monoclonal phage displaying the scFv of canakinumab”, the UV output (CFU) amounted to 6400 CFU and the UV/non-UV output ratio worked out at 3.8.

These data come from paper PMC7112767.
